Test results: patent US20250215092A1 (ZHEJIANG NANOMAB TECHNOLOGY CENTER, published 2025)

Assays:
[1] = molecular target: T1, EGFR-D4 (F481-S645, P00533-1 (uniprot)) his tag antigen (human, UniProt P00533 481-645); experiment: ELISA: EGFR-D4 his tag antigen coated at 0.5 µg/mL, antibody at 2000, 200, 20, 2 nM, HRP goat anti-human IgG Fc, OD450
T1 construct: range 481-645; also called IV domain protein; EGFR-D4 protein; not shown: His tag
Procedure: (2) Protein Binding Epitope Analysis: ELISA was used to determine the binding of VHH-IgG4 antibody to each domain of EGFR extracellular protein. Briefly, EGFR his tag protein, and EGFR-V3-his tag antigen protein were diluted to 1 μg/mL, EGFR-D1D2 (L25-A310, P00533-1 (uniprot)), and EGFR-D4 (F481-S645, P00533-1 (uniprot)) his tag antigen were diluted to 0.5 μg/mL, and each well of an ELISA plate was coated with […] antigen and incubated overnight at 4° C. The next day, the plates were washed twice with PBST (added with 0.5% TWEEN-20), then blocked with 3% BSA at 37° C. for 1.5 h, and then washed twice with PBST. Then, the antibody to be tested was diluted to 50 nM, 5 nM, 0.5 nM, 0.05 nM, and added to the wells coated with EGFR his tag protein or EGFR-V3-his tag antigen at 100 µL/well, respectively. The antibody was diluted to 2000 nM, 200 nM, 20 nM, 2 nM, and added to the wells coated with EGFR his tag protein or EGFR-V3-his tag antigen at 100 µL/well, respectively. The ELISA plates were incubated at 37° C. for 1 h. The plates were then washed three times with PBST, and then 100 μL HRP labeled Goat anti human IgG Fc antibody (1:10000, Bethyl) was added into each well, and incubated at 37° C. for another 40 min. After washing the plates four times with PBST, 100 μL of TMB substrate was added to each well, and the reaction was allowed to proceed for 3-5 min. The reaction was stopped by adding 100 μL of 3N hydrochloric acid per well. After stopping the reaction, the optical density at 450/650 nm was measured using a Tecan microplate reader.

[2] = molecular target: T2, EGFR on SKOV3 and Aspc-1 tumor cells (human, UniProt P00533); experiment: flow cytometry on SKOV3 tumor cells, anti-human IgG PE, MFI, curve fit; unit from the concentration axis and paragraph 62 [table]
T2 construct: endogenous, on the cell surface; the cell line is named under assay; also called tumor cell EGFR
Procedure: (§1) Two kinds of tumor cells, SKOV3 and Aspc-1, expressing EGFR were respectively plated in 96 well plates, with 3×10⁵ cells per well, and then the tumor cells were incubated with gradient diluted VHH-IgG4 antibody. After incubation on ice for half an hour, anti human IgG PE (Jackson Immuno Research, Code: 109-117-008, Lot:145501) was added for incubation, and then CytoFLEX flow cytometry was used for detection. The EC50 of the antibody was calculated by curve fitting.

[3] = molecular target: T2, EGFR on SKOV3 and Aspc-1 tumor cells; experiment: flow cytometry on Aspc-1 tumor cells, anti-human IgG PE, MFI, curve fit; unit from the concentration axis and paragraph 62 [table]
Procedure: as §1

[4] = molecular target: T2, EGFR on SKOV3 and Aspc-1 tumor cells; experiment: flow cytometry on Aspc-1 tumor cells, anti-human IgG PE, MFI, curve fit; unit from the concentration axis and paragraph 62; no upper plateau within the range shown [table]
Procedure: as §1

[5] = molecular target: T3, human EGFR.His antigen (Acro, Cat #EGR-H522a) (human, UniProt P00533 25-645); experiment: competition ELISA: EGFR his tag protein coated, antibody titrated together with Human EGF-mouse IgG2a Fc, bound EGF detected with HRP anti-mouse IgG, unit taken from the concentration axis (paragraph 62 says nM); OD450 falls only from about 2.4 to about 2.1-2.2 [table]
T3 construct: extracellular domain; Bought protein; also called EGFR his tag protein; full-length EGFR extracellular domain protein; not shown: His tag
Procedure: (§2) Briefly, EGFR his tag protein was diluted with PBS to 2 μg/mL, and 100 μL of the antigen was added to each well of an ELISA plate and coated overnight at 4° C. The next day, the plates were washed twice with PBST (containing 0.5% TWEEN-20), and then blocked with 3% BSA at 37° C. for 1.5 h, followed by two washes with PBST. […] VHH-IgG4 antibodies were diluted to 2000 nM and then serially diluted 4-fold for 8 gradients. […] After washing 3 times, HRP goat anti-mouse IgG (Goat anti-Mouse IgG) (H+L) antibody (Abcam, cat #ab205719) diluted at 1:3000 was added to each well, and the plate was incubated at 37° C. for 40 min. The plates were then washed 3 times with PBST, and 100 μL of TMB substrate was added to each well and allowed to react for 3-5 min. The reaction was stopped by adding 100 μL of 3N hydrochloric acid per well. After stopping the reaction, the optical density at 450/650 nm was measured using a Tecan microplate reader. The dose-response curve was plotted, and the IC50 was calculated using GraphPad Prism 8.0 software.

[6] = molecular target: T3, human EGFR.His antigen (Acro, Cat …); experiment: competition ELISA: EGFR his tag protein coated, antibody titrated together with Human EGF-mouse IgG2a Fc, bound EGF detected with HRP anti-mouse IgG, unit taken from the concentration axis (paragraph 62 says nM); OD450 falls only from about 2.4 to about 2.1 [table]
Procedure: as §2

[7] = molecular target: T2, EGFR on SKOV3 and Aspc-1 tumor cells; experiment: flow cytometry on Aspc-1 tumor cells, anti-human IgG PE, MFI, curve fit; unit from the concentration axis and paragraph 62; the curve is barely above Isotype 2: MFI at most about 1500 [table]
Procedure: as §1

[8] = molecular target: T2, EGFR on SKOV3 and Aspc-1 tumor cells; experiment: flow cytometry on SKOV3 tumor cells, anti-human IgG PE, MFI, curve fit; unit from the concentration axis and paragraph 62; the curve is barely above Isotype 2: MFI about 1800 at about 250 nM, no plateau [table]
Procedure: as §1

[9] = molecular target: T3, human EGFR.His antigen (Acro, Cat …); experiment: competition ELISA: EGFR his tag protein coated, antibody titrated together with Human EGF-mouse IgG2a Fc, bound EGF detected with HRP anti-mouse IgG, unit taken from the concentration axis (paragraph 62 says nM); the curve does not fall (OD450 about 2.4 to 2.65), no blocking, so the fit is not meaningful [table]
Procedure: as §2

Row | binding result [1] | EC50 [2] | EC50 [3] | EC50 [4] | IC50 [6] | Binder | further results
1 | no binding (tested: 2000 nM) | 1.1 nM | 1.5 nM | – | – | E008 VHH-IgG4 antibody (antibody, V domains shown, VHH fused to IgG4 (VHH-IgG4), expressed in ExpiCHO, protein A purified; not shown: human IgG4 constant part from the pCDNA3.4-IgG4 vector) VH: EVQVVESGGGLVQSGGSLTLSCTSSGLPLLDYAIGWFRQAPGKEREAVSAISISEGSTYYTDSVRGRFTISRDNNKNKVYLRMDNLKPEDTAVYYCAADKTDIGFWLLVGGAGGGEVRYEYWGQGTQVTVSS | –
2 | – | 9.7 nM | – | 15 nM | – | E005 VHH-IgG4 antibody (antibody, V domains shown, VHH fused to IgG4 (VHH-IgG4), expressed in ExpiCHO, protein A purified; not shown: human IgG4 constant part from the pCDNA3.4-IgG4 vector) VH: QVQLVESGGGLVQPGGSLRLSCEASGFAFSDYTMRWHRQAAGKELELVAYITSAGDIIKYANSVRGRFTISRDNAKNTLYLQMDSLKPEDTAVYRCNALVSASVRASDYWGQGTLVTVSS | IC50 [5]: 0.033 µg/mL
3 | – | 14 nM | – | 39 nM | – | E007 VHH-IgG4 antibody (antibody, V domains shown, not shown: a dimerising Fc or GST) VH: EVQLVESGGGLVQPGGSLRLSCEASGFSFSDHTMRWHRQAAGKNLELVAYITPAGDIIKYADSVQGRFTISRDNAKNMLYLQMDSLRPDDTAVYRCNALVSAAVRASDYWGQGTQVTVSS | –
4 | – | 6.5 nM | – | 17 nM | 0.084 µg/mL | E003 VHH-IgG4 antibody (antibody, V domains shown, not shown: a dimerising Fc or GST) VH: QVQLVESGGGLVQPGGSLRLSCVASGGVFSSYAMGWYRQVPGKLRELVATITSGHSTTYADIVRGRFTISRDNTKNTVYLQMNRLEPDDTAVYYCNRSPYTPGNWGQGTLVTVSS | –
5 | no binding (tested: 2000 nM) | 2.3 nM | 3.7 nM | – | 0.038 µg/mL | E002 VHH-IgG4 antibody (antibody, V domains shown, VHH fused to IgG4 (VHH-IgG4), expressed in ExpiCHO, protein A purified; not shown: human IgG4 constant part from the pCDNA3.4-IgG4 vector) VH: QVQLVESGGGLVQAGGSLRLSCAASGFTFSDYAVSWYRQAPGKEREFVARITGTGETSRYEDSVKGRFAISRDNVKNTAYLQMNSLKPEDTAVYYCSIYHPPRDYWGQGTQVTVSS | –
6 | – | – | – | – | – | E004 VHH-IgG4 antibody (antibody, V domains shown, not shown: a dimerising Fc or GST) VH: EVQLVESGGGLAQSGGSLRLACEASGFPFETYAMSWARQTPGNEPEWVAGIFPDGKHTAYAHSVKGRFTISRVNANNTVYLQMDSLKPEDTAVYYCAKDLPFFATPSFYIGYWGQGTLVTVSS | EC50 [7]: 3.6 nM; EC50 [8]: 245 nM; IC50 [9]: ~22.8 µg/mL
